No end group written: not given here. *: point of attachment. 125I = [125I]*

One may read the Kd as the concentration at which binding is half-saturated. Higher therefore signals a looser complex.

This assay concerns the target cell surface binding site for EMAP II N-terminal peptides on human mononuclear phagocytes (MPs); ≈73 kDa MP surface polypeptide. The assay can be described thus: radioligand binding on human MPs, 4 C, one-site model.

RIGRIVTAKY(125I) [^125I-…] displayed a Kd of 0.19 nM and a N (molecules of peptide bound per cell) (molecules of peptide bound per cell) of 8300.

(Values after patent US20020160957A1.)
